The values that follow come from publication PMC6988089.

What is called Kd is the concentration at which binding is half-saturated.

Experiment [1] concerns the target TAMRA-labeled benzylated H3K9 peptide. Nature of the experiment: fluorescence polarisation.
In experiment [2] the target is TAMRA-labeled H3K9me3 peptide. Nature of the experiment: fluorescence polarisation. On the technique in general: Polarisation of emitted light reports the rotation of a fluorescent probe.
The target in experiment [3] is H3K9me2 peptide.

A value given as a limit tells only on which side of the number the result lay.

In the case of “CBX1 chromodomain F50A (from UniProt P83916 20-73) (domain or fragment)”, the dissociation constant (Kd) in experiment [1] amounted to 18.5 µM.

In the case of “CBX3-F44G mutant (from UniProt Q13185 1-183) (natural protein)”, the Kd was > 1000 µM in experiment [2] and 49 µM in experiment [1].

With “Y26F/F50G-CBX1 chromodomain (from UniProt P83916 22-73) (domain or fragment)”, the values for the Kd in experiment [3], in experiment [2] and in experiment [1] were > 300 µM, 80 µM and 5.5 µM, respectively.

On to “wild-type CBX3 (from UniProt Q13185 1-183) (natural protein)”, for which the Kd in experiment [1] was > 1000 µM.
